From patent US20190300610A1 (published 2019) come the findings set out here.

Test [1] has as its target human VISTA polypeptide (ELISA coat) (UniProt Q9H7M9 33-194). The experiment in a line: ELISA. For orientation: In an ELISA, binding on a coated surface is turned into a signal by an enzyme label.
Test [2] has as its target T1, cynomolgus macaque VISTA polypeptide (ELISA coat) (cynomolgus macaque, UniProt A0A7N9IB00 33-194).
T1 chain: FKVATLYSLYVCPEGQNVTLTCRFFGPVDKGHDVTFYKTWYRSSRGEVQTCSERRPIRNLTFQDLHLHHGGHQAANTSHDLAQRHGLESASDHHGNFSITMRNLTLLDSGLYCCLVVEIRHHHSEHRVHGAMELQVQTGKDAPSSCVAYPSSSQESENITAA
Kind of test: ELISA.

In a further test the target is -. The experiment in a line: BLI; Figure 25B. (BLI is a label-free optical method that tracks binding on a fibre tip over time.)

B1: anti-VISTA clone 4M2-C12 IgG1 (antibody)
heavy: not shown
light: DIVITQTPAILSTSPGEKVTMTCRASSSVGYIHWYQQKPGSSPKPWIYATSNLASGVPARFSGSGSGTSNSLTITRVEAEDAATYYCQQWSSYPPITFGGGTKLEVKRTVAAPSVFIFPPSDEQLKSGTASVVCLLNNFYPREAKVQWKVDNALQSGNSQESVTEQDSKDSTYSLSSTLTLSKADYEKHKVYACEVTHQGLSSPVTKSFNRGEC
As usually defined, the EC50 is the concentration that produces a half-maximal response. In turn, B1 had an EC50 in test [1] of 0.246 nM.

B2: VSTB112 IgG1 (antibody, V domains shown)
VH: QVQLVQSGAEVKKPGSSVKVSCKASGGTFSSYAISWVRQAPGQGLEWMGGIIPIFGTANYAQKFQGRVTITADESTSTAYMELSSLRSEDTAVYYCARSSYGWSYEFDYWGQGTLVTVSS
VL: DIQMTQSPSSLSASVGDRVTITCRASQSIDTRLNWYQQKPGKAPKLLIYSASSLQSGVPSRFSGSGSGTDFTLTISSLQPEDFATYYCQQSAYNPITFGQGTKVEIKR
In turn, B2 registered an EC50 in test [2] of 0.0052 nM.

B3: mFcγRIII (receptor)
chain: ALPKAVVKLDPPWIQVLKEDMVTLMCEGTHNPGNSSTQWFHNGRSIRSQVQASYTFKATVNDSGEYRCQMEQTRLSDPVDLGVISDWLLLQTPQRVFLEGETITLRCHSWRNKLLNRISFFHNEKSVRYHHYKSNFSIPKANHSHSGDYYCKGSLGSTQHQSKPVTITVQDPATTSSISLVWYHT
A word on the Kd: it is a measure of binding affinity in units of concentration. Low values mean tighter binding, high ones weaker binding. On to B3, for which, in the test with -, binding was characterised by a dissociation constant (Kd) of 455 nM.
